Assay results published in the supplement of paper PMC12042874.
± gives the uncertainty stated by the source.

Experiment: amyloid nucleation score (Sup35N fusion, yeast selection) (log enrichment); library NNK3; higher = more nucleation; inactive = no reads after selection
Outline: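 Psi-negative yeast expressed Sup35N fused to peptides of 20 random codons. They were induced 24 hours with 100 μM copper sulfate, grown 7 days at 30°C without adenine and uracil, and their plasmid inserts from input and output were Illumina-sequenced. The nucleation score is the DiMSum log enrichment of output over input reads, centred on the mode score of non-aggregating sequences. Sequences with under 100 input reads were excluded.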

Substance	amyloid nucleation score
WAVYVGVL	inactive
WCCFSWKVLRHGLTSACGC	1.31 ± 0.11
WCCGY	0.774 ± 0.27
WCGVFWLVVMAY	inactive
WCKVRYSTNMVTSTSATLVA	inactive
WCPTGEYRKCYNMSFARW	inactive
WDGYCSRQDRLRFAYRLGVG	inactive
WDKSLSVRTQVCHNRDS	inactive
WDMWPGI	inactive
WECRDETSCARVVFTGLFR	inactive
WEPYTCIYC	inactive
WFAGGHGKESIINWHYCQYM	inactive
WFCVLMDSAWDCRVIGGGGR	1.1 ± 0.13
WFFMTCNGCFDHGGVKCLRS	inactive
WFMREAWIWSAPFWPWIRNT	inactive
WFMVIAVCMSAFESKLARFH	inactive
WFSNVGVVEVASSRCREWGI	inactive
WFTQERHSVPLLIWMGLRRQ	2.03 ± 0.075
WFWRVNIMKTIGLSHSRHEG	inactive
WGDDGNTFYE	inactive
WGESNVSTIV	inactive
WGFLQLHEPS	inactive
WGFRWNKCLNLAQPWLMALS	inactive

Substance	amyloid nucleation score
WGFVIIYELKNLMCVMRPPS	inactive
WGGVGKKMKRQRTAGTSRSG	inactive
WGICFVITYNIKIKYDHLMS	1.18 ± 0.081
WGITA	inactive
WGSGY	inactive
WGVGTPVRLWFIEANPVGHV	inactive
WIDFLSRLTIRGSDMYHQEY	0.37 ± 0.29
WIERAAAALVLDLLCSKRRA	inactive
WIGSRGHQCPYRSSVTMMGT	inactive
WIKGVRIRPL	inactive
WIMWTLAIKIIMCW	inactive
WIRVDRCGCARVPLGDHVKK	inactive
WISEDTRLLHWLLQCVWIRI	-0.531 ± 1.4
WIVLQTSNSRLMQWGAP	0.618 ± 0.27
WIWVVVHFYDLECQLDS	inactive
WIYYNAVFHACCVYELSNNA	2.85 ± 0.067
WKRNFIW	inactive
WKYRSKRWMMLSASVRLYSS	inactive
WLFLVN	inactive
WLGKYVLVSEYIV	inactive
WLGWPD	inactive
WLLLLSK	inactive
WLLPQKGLMG	inactive

Substance	amyloid nucleation score
WLTYYIDFRVILSFQSVRDY	inactive
WLWKVSFK	1.41 ± 0.093
WLYARISADHDCLLKPELRM	inactive
WMVVTMPSLKCGSYASVHGA	inactive
WNDRKSYLYSAIAMKARSVY	inactive
WNFWNNFKSLEWEVLARYFF	inactive
WNPYAIARKAIVRGSVKWGV	inactive
WNRAVCIMSNIWIMDLPVLK	inactive
WPFMNYVNENCSWYSS	1.09 ± 0.14
WPIIGTLNRTSGSDR	inactive
WPVNCMKGSSCNRELFNH	inactive
WQLRQGDLGSHVRRFLQLYR	inactive
WQNEMYGRCVLCKLRYNEPD	inactive
WQTDEDRRCKTDFISLF	inactive
WRIDDY	inactive
WRRCMRYGTASASSSENAHY	0.837 ± 0.18
WRRGFVNSRGYNLRFWGHYF	inactive
WSCASSCFY	inactive
WSFMLFSVSYYNQGEAVLPA	inactive
WSGNCFNQSKLAWYDHYHQW	inactive
WSVVRRAELSNSVKFEDHGM	inactive
WSYNITK	inactive
WTDVRGMVSSINGRSTSRVP	inactive

Substance	amyloid nucleation score
WTGLLLCVF	-0.093 ± 0.85
WTIDTD	inactive
WTRESLQYTGNSYGALSTFF	inactive
WTSDSRCYMNLKRCRGYTLF	inactive
WTVIDYDKTWIYLLASVLYL	inactive
WVCDRLGRVSLILRL	1.06 ± 0.2
WVEWIWSWKNDVPLVCRASA	inactive
WVFISKQLVNDVAWPVLCAL	-0.17 ± 0.85
WVFSWKMHRSKSKYRSKYLP	inactive
WVFVDLLSNVVFNGKIVERC	inactive
WVHCSPGDRSFTLGTPSFHK	inactive
WVRVVFSGSRYRTVCSGSRC	-0.788 ± 1.4
WVVQE	-0.553 ± 0.93
WWAVTKFTAFYMRVIYKIGR	inactive
WWIARIRMHGCCDVYLGQHR	2.6 ± 0.087
WYADICCCQIFRCWKLDRWS	inactive
WYFGCSALYQL	1.49 ± 0.099
WYGRLGWRLVRPLGRYFTRS	inactive
WYRYFGCEDP	inactive
WYSTEM	inactive
WYTNPRDIRYFLVVYKKQN	inactive
WYVFPCRDLVDMCCSGRCAV	inactive
YAMYSYFFIVAWFFNRS	0.252 ± 0.39

Substance	amyloid nucleation score
YAPSVLSCN	inactive
YARVMSVAMSWEDQNSTKKR	0.467 ± 0.19
YARWDRSKYMTRYCHCCYFL	inactive
YARYYGCGIWGWWFSNRSLL	inactive
YAYMYNVCYGDCRCANGVWY	2.71 ± 0.084
YCCDLYLN	inactive
YCCNGYPACG	inactive
YCKIKLIQGNRFNEYISYCD	2.56 ± 0.054
YCLTLNHAMIRFGMCCHYMC	inactive
YCLVV	inactive
YCMWLPFMVNFH	2.58 ± 0.057
YCQESRSCWAQSYICEGVSL	-0.253 ± 1.1
YCQIK	inactive
YCRSSPTLTFCQYSL	inactive
YCVFGWIKAWPGGLVVNEFR	inactive
YCVLVIFVGFCFMEFENVTQ	inactive
YDADRGEWLQLITSPDPFFY	inactive
YDCVGDGWRPWLRPEDRSHV	inactive
YDGRIGRYSSYIKKCF	inactive
YDLCERLR	inactive
YDLVIGCVMNVLFVLRCATR	inactive
YDPFYGNDQVPIQIVFLCFP	inactive
YDRGIVWH	inactive

Substance	amyloid nucleation score
YEAFADRTPLVFAHSWSMLK	inactive
YEGRSNSVRSK	inactive
YEHRCCHSNIDIFGLQSRNV	inactive
YEIHWSRRKGMWFEYYTFHF	inactive
YEIYQFSYPRFWKYQCNCSS	inactive
YERLLRDKALAPIDPI	inactive
YERWKLVHHGKNMYEGVYRL	inactive
YEVNGFAQNRA	-0.564 ± 1
YEYYGVKRCIVLG	inactive
YFGFYSLWYKYYVTSISRSL	inactive
YFGKAMHLLGYSFETGLDWS	inactive
YFILLGSAGRCAPMM	0.71 ± 0.23
YFKVFQVLNLNICYSYRMVN	inactive
YFKWVFKSYKPV	1.35 ± 0.12
YFLDLL	inactive
YFLEGNFESRWGECRSARSW	0.053 ± 0.52
YFLICIQVHKSMRNCPFYVS	inactive
YFNLSEYGLCCYRGFRVYKS	1.23 ± 0.18
YFSACTVKKHTSWCADVT	inactive
YFSSSWGMLKCGFAVFDHLT	inactive
YFVALVS	inactive
YFVIIYWLAPHHSNLLISFP	inactive
YFYSSDALPSIS	inactive

Substance	amyloid nucleation score
YGCQSCHGFLCSQFGRPAHS	0.976 ± 0.21
YGGMVN	inactive
YGIVYSCCIVSVIEDFKLLK	2.57 ± 0.082
YGLIRYPLFIFSALVTT	inactive
YGMLFYIYYMPRIFQYAVNL	1.56 ± 0.065
YGREMRSSMMNGGYLIIMKW	inactive
YGSVFSMSMTHA	inactive
YGWFVDFGEYVTESNVGLY	inactive
YGWVVSSLCYGKFYICIWNL	0.797 ± 0.22
YGYEHALQFIFYLFNHLSWS	inactive
YGYSTSFSG	0.586 ± 0.28
YGYSVPGKIEFYVGVIGRNP	1.2 ± 0.085
YHCWSDLDKSLELLSQLMFR	inactive
YHDFRMLFLWVVWSIVSIRS	inactive
YHDLKNATHVV	inactive
YHFLACCKLVGRRWWFGLQR	inactive
YHIRR	inactive
YHYQDNMS	inactive
YIALLLLSRWDQTCKGARTG	0.622 ± 0.18
YIASLLDYFCMQEDQAYFDY	inactive
YICCDIRTRALRIRIRCVLM	-0.411 ± 0.75
YIDTW	inactive
YIFFWKRTFLP	inactive
